Data as given in patent publication KR20210063070A (dated 2021).

Assays:
[1] = target: T1, recombinant mouse B7-H3 protein with C-terminal His tag (Sino Biological, 50973-M08H) (mouse, UniProt Q8VE98 29-244); assay: ELISA, IgG on coated recombinant mouse B7-H3-His
T1 construct: Bought; also called 마우스 B7-H3
T1 sequence (looked up): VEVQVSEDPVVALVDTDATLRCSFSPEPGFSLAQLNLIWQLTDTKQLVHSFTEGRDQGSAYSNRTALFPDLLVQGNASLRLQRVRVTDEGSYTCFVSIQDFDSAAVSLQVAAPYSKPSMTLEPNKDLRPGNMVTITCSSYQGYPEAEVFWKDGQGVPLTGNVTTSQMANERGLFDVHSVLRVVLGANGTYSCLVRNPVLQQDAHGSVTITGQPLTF

[2] = target: T2, mouse B7-H3 expressed on the surface of mouse cancer cell lines (CT26, B16F10, TC-1) (mouse, UniProt Q8VE98 29-316); assay: flow cytometry on CT26, B16F10 and TC-1 cells, 10 ㎍/㎖
T2 construct: whole, on cells; also called 세포 표면 발현 마우스 B7-H3
T2 sequence (looked up): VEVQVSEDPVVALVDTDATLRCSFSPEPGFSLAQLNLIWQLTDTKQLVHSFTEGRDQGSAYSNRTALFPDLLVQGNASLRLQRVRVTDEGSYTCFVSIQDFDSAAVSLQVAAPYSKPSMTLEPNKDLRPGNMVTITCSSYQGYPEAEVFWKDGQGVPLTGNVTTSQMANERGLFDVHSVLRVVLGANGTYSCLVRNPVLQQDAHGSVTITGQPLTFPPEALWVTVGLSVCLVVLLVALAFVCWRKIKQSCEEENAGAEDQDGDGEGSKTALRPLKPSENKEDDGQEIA

[3] = target: T3, human B7-H3 expressed on the surface of human cancer cell lines (human, UniProt Q5ZPR3 29-534); assay: flow cytometry on human cancer cell lines that express B7-H3
T3 construct: whole, on cells; also called 세포 표면 발현 B7-H3; CD276
T3 sequence (looked up): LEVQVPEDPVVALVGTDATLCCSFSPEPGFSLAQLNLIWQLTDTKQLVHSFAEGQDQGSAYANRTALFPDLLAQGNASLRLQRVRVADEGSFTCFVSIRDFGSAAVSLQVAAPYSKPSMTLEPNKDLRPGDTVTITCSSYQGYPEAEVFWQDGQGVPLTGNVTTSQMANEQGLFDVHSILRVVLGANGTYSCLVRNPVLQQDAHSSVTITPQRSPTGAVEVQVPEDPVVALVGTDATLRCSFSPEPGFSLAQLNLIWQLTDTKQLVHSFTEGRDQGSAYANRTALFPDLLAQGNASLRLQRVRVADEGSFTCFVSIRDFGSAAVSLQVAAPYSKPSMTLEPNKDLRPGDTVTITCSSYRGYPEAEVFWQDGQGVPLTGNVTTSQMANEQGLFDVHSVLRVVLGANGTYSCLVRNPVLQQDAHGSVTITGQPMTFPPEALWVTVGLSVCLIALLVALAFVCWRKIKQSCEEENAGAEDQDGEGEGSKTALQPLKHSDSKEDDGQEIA

Measured: binding result

B1: anti-B7-H3 antibody B5 (full IgG form) (antibody, V domains shown)
VH: EVQLLESGGGLVQPGGSLRLSCAASGFTFSDYAMSWVRQAPGKGLEWVSSISSGSGSIYYADSVKGRFTISRDNSKNTLYLQMNSLRAEDTAVYYCAKNLIPLDYWGQGTLVTVSS
VL: QSVLTQPPSASGTPGQRVTISCSGSSSNIGSNAVSWYQQLPGTAPKLLIYYNSHRPSGVPDRFSGSKSGTSASLAISGLRSEDEADYYCGSWDASLNAYVFGGGTKLTVLG
binds: [1] | [2] | [3]

B2: anti-B7-H3 antibody C4I (full IgG form) (antibody, V domains shown)
VH: EVQLLESGGGLVQPGGSLRLSCAASGFTFSGYYMSWVRQAPGKGLEWVSLISPSSGSIYYADSVKGRFTISRDNSKNTLYLQMNSLRAEDTAVYYCAKGLTKFDYWGQGTLVTVSS
VL: QSVLTQPPSASGTPGQRVTISCTGSSSNIGSNDVSWYQQLPGTAPKLLIYANSHRPSGVPDRFSGSKSGTSASLAISGLRSEDEADYYCGSWDDSLSGYVFGGGTKLTVLG
binds: [1] | [2] | [3]

B3: anti-B7-H3 antibody F6V (full IgG form) (antibody, V domains shown)
VH: EVQLLESGGGLVQPGGSLRLSCAASGFTFSDYAMSWVRQAPGKGLEWVSGISPGGSNTYYADSVKGRFTISRDNSKNTLYLQMNSLRAEDTAVYYCAKDAWIARLLLFDYWGQGTLVTVSS
VL: QSVLTQPPSASGTPGQRVTISCSGSSSNIGSNAVTWYQQLPGTAPKLLIYYNNKRPSGVPDRFSGSKSGTSASLAISGLRSEDEADYYCGTWDDSLSGYVFGGGTKLTVLG
binds: [1] | [2] | [3]

B4: anti-B7-H3 antibody D8G (full IgG form) (antibody, V domains shown)
VH: EVQLLESGGGLVQPGGSLRLSCAASGFTFSSYSMSWVRQAPGKGLEWVSGIYSDGSNTYYADSVKGRFTISRDNSKNTLYLQMNSLRAEDTAVYYCAKMLHRFDYWGQGTLVTVSS
VL: QSVLTQPPSASGTPGQRVTISCSGSSSNIGSNSVTWYQQLPGTAPKLLIYADSQRPSGVPDRFSGSKSGTSASLAISGLRSEDEADYYCGTWDSSLNAYVFGGGTKLTVLG
binds: [1] | [2] | [3]

B5: anti-B7-H3 antibody 10F11 (full IgG form) (antibody, V domains shown)
VH: EVQLLESGGGLVQPGGSLRLSCAASGFTFSSYGMSWVRQAPGKGLEWVSGIYSGGSSKYYADSVKGRFTISRDNSKNTLYLQMNSLRAEDTAVYYCAKNRLRFDYWGQGTLVTVSS
VL: QSVLTQPPSASGTPGQRVTISCTGSSSNIGSNSVTWYQQLPGTAPKLLIYSDSHRPSGVPDRFSGSKSGTSASLAISGLRSEDEADYYCGTWDASLNAYVFGGGTKLTVLG
binds: [1] | [2] | [3]
